Results published in PMC9482650, “Quantitative fragmentomics allow affinity mapping of interactomes” (Nature Communications, 2022).

Tests used:
Assay in all cases: holdup assay
Set-up in all cases: key: below the threshold = too weak to quantify, mostly under pKd 3.1 to 4
Details in all cases: plain residues with an end cap or a label only (N-terminal biotin on a linker: ttds)
LMO7, Q8WWI1 = target: LMO7, Q8WWI1
NHERF2_1, Q15599 = target: NHERF2_1, Q15599
Q96HC4 = target: Q96HC4
MPDZ_6, O75970 = target: T1, MPDZ_6, O75970
T1 sequence (O75970 1003-1099, limits assumed, looked up): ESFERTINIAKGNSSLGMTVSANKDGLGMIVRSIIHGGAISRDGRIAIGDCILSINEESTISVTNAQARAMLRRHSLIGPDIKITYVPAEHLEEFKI

CARD14, Q9BXL6 = target: CARD14, Q9BXL6
PDZRN4_2, Q6ZMN7 = target: PDZRN4_2, Q6ZMN7
USH1C_3, Q9Y6N9 = target: T2, USH1C_3, Q9Y6N9
T2 sequence (Q9Y6N9 447-547, limits assumed, looked up): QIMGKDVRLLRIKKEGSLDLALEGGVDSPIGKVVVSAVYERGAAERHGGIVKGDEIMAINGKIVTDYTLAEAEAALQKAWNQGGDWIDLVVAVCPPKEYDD

SHANK2, Q9UPX8 = target: T3, SHANK2, Q9UPX8
T3 sequence (Q9UPX8 621-730, limits assumed, looked up): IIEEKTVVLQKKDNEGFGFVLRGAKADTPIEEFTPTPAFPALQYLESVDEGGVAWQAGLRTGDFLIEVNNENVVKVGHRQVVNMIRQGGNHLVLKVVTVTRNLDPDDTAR

MPDZ_3, O75970 = target: T4, MPDZ_3, O75970
T4 sequence (O75970 372-473, limits assumed, looked up): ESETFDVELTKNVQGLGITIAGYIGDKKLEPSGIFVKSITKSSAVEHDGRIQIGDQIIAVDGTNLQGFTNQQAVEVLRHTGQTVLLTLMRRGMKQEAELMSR

SHROOM2, Q13796 = target: T5, SHROOM2, Q13796
T5 sequence (Q13796 21-118, limits assumed, looked up): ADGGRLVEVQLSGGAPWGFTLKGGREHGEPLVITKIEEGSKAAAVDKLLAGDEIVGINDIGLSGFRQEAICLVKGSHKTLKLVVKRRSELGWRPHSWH

TJP3_2, O95049 = target: T6, TJP3_2, O95049
T6 sequence (O95049 190-282, limits assumed, looked up): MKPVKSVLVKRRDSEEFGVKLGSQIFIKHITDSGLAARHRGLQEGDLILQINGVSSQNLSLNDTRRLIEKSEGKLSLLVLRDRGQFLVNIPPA

O60759 = target: O60759
SYNPO2L, Q9H987 = target: T7, SYNPO2L, Q9H987
T7 sequence (Q9H987 1-98, limits assumed, looked up): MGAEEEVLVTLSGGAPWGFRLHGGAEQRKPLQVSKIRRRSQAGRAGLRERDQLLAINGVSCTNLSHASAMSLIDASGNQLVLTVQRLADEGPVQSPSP

PDZD2_6, O15018 = target: T8, PDZD2_6, O15018
T8 sequence (O15018 2745-2839, limits assumed, looked up): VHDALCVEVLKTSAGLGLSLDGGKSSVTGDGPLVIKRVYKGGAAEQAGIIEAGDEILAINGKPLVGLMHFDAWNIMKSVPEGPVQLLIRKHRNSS

PDZD9, Q8IXQ8 = target: PDZD9, Q8IXQ8
Q8TEW0 = target: Q8TEW0
LIMK1, P53667 = target: LIMK1, P53667
PDZD2_5, O15018 = target: T9, PDZD2_5, O15018
T9 sequence (O15018 2617-2716, limits assumed, looked up): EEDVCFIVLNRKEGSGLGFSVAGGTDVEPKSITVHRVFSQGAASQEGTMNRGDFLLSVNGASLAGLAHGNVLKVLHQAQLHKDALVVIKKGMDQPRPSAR

MAGI2_1, Q86UL8 = target: T10, MAGI2_1, Q86UL8
T10 sequence (Q86UL8 12-111, limits assumed, looked up): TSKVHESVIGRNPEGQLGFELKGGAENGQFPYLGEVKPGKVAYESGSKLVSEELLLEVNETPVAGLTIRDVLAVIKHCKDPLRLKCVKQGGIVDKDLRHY

PDZD7_2, Q9H5P4 = target: T11, PDZD7_2, Q9H5P4
T11 sequence (Q9H5P4 205-303, limits assumed, looked up): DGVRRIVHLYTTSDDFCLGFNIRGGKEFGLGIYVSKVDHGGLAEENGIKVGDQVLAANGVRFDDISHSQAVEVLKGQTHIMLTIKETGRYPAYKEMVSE

PARD3B_2, Q8TEW8 = target: PARD3B_2, Q8TEW8
SCRIB_4, Q14160 = target: SCRIB_4, Q14160
MAGI1_5, Q96QZ7 = target: MAGI1_5, Q96QZ7
LNX2_4, Q8N448 = target: T12, LNX2_4, Q8N448
T12 sequence (Q8N448 595-690, limits assumed, looked up): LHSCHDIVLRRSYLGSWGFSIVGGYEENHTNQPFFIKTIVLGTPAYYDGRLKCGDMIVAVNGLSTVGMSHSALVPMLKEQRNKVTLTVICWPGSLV

PDZD2_3, O15018 = target: T13, PDZD2_3, O15018
T13 sequence (O15018 581-682, limits assumed, looked up): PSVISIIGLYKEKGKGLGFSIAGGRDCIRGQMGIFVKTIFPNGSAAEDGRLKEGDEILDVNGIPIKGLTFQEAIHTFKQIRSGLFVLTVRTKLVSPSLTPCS

LMO7, Q8WWI1, sequence (Q8WWI1 1037-1138): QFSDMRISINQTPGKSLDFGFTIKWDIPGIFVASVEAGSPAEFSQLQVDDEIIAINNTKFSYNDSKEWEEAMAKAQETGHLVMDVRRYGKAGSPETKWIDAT
PDZRN4_2, Q6ZMN7, sequence (Q6ZMN7 389-498): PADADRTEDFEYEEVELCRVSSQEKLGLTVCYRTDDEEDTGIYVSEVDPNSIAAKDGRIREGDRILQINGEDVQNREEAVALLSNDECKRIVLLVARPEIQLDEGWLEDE
LIMK1, P53667, sequence (P53667 155-268): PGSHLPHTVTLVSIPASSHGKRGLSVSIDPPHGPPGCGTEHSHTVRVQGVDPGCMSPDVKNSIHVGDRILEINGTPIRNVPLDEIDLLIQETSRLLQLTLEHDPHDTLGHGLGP
MAGI1_5, Q96QZ7, sequence (Q96QZ7 986-1098): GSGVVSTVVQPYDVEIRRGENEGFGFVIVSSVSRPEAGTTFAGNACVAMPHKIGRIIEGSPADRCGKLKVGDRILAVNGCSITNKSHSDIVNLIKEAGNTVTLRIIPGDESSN
CARD14, Q9BXL6, sequence (Q9BXL6 558-663): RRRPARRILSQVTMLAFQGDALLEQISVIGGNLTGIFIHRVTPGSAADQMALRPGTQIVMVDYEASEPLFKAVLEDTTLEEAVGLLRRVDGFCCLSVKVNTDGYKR
SCRIB_4, Q14160, sequence (Q14160 1095-1204): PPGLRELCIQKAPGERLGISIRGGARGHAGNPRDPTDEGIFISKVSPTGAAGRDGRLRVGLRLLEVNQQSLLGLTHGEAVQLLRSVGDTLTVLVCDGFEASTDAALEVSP
PDZD9, Q8IXQ8, sequence (Q8IXQ8 23-120): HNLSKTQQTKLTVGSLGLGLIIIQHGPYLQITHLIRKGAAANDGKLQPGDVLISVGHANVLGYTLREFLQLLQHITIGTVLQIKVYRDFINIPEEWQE
PARD3B_2, Q8TEW8, sequence (Q8TEW8 376-471): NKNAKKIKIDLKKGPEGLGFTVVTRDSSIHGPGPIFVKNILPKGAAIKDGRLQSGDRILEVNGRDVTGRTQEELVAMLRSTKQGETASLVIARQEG
NHERF2_1, Q15599, sequence (Q15599 9-91): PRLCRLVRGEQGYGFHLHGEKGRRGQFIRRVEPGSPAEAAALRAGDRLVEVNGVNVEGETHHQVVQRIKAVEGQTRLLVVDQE

pKd (LMO7, Q8WWI1): below the threshold
pKd (NHERF2_1, Q15599): below the threshold
pKd (Q96HC4): below the threshold
pKd (MPDZ_6, O75970): below the threshold
pKd (CARD14, Q9BXL6): below the threshold
pKd (PDZRN4_2, Q6ZMN7): below the threshold
pKd (USH1C_3, Q9Y6N9): below the threshold
pKd (SHANK2, Q9UPX8): below the threshold
pKd (MPDZ_3, O75970): below the threshold
pKd (SHROOM2, Q13796): below the threshold
pKd (TJP3_2, O95049): below the threshold
pKd (O60759): below the threshold
pKd (SYNPO2L, Q9H987): below the threshold
pKd (PDZD2_6, O15018): below the threshold
pKd (PDZD9, Q8IXQ8): below the threshold
pKd (Q8TEW0): below the threshold
pKd (LIMK1, P53667): 4.16
pKd (PDZD2_5, O15018): below the threshold
pKd (MAGI2_1, Q86UL8): 3.74
pKd (PDZD7_2, Q9H5P4): below the threshold
pKd (PARD3B_2, Q8TEW8): 3.74
pKd (SCRIB_4, Q14160): below the threshold
pKd (MAGI1_5, Q96QZ7): below the threshold
pKd (LNX2_4, Q8N448): below the threshold
pKd (PDZD2_3, O15018): below the threshold
Binder: PSRDRKETSI [RALBP1, Q15311]
